According to patent US12104181B2, “Compositions and methods for treating viral infections targeting TRIM7” (THE BOARD OF REGENTS OF THE UNIVERSITY OF TEXAS SYSTEM, priority 2021, dated 2024):

System: coxsackievirus B3 (CVB3-GFP)
Assay type: cell-based
Details: HeLa cells, replicate R1; for Percent Infected R1: GFP-positive cells within RFP-positive gate

Row | Molecule | Percent Infected R1 [%] | Z score R1
1 | RNF141: human RING type E3 ligase expressed from lentiviral vector (protein, UniProt Q8WVD5 2-230, looked up) RING finger protein 141: GQQISDQTQLVINKLPEKVAKHVTLVRESGSLTYEEFLGRVAELNDVTAKVASGQEKHLLFEVQPGSDSSAFWKVVVRVVCTKINKSSGIVEASRIMNLYQFIQLYKDITSQAAGVLAQSSTSEEPDENSSSVTSCQASLWMGRVKQLTDEEECCICMDGRADLILPCAHSFCQKCIDKWSDRHRNCPICRLQMTGANESWVVSDAPTEDDMANYILNMADEAGQPHRP | 87.2 | −0.02
2 | TRIM9: human RING type E3 ligase expressed from lentiviral vector (protein, UniProt Q9C026 1-710, looked up) E3 ubiquitin-protein ligase …: MEEMEEELKCPVCGSFYREPIILPCSHNLCQACARNILVQTPESESPQSHRAAGSGVSDYDYLDLDKMSLYSEADSGYGSYGGFASAPTTPCQKSPNGVRVFPPAMPPPATHLSPALAPVPRNSCITCPQCHRSLILDDRGLRGFPKNRVLEGVIDRYQQSKAAALKCQLCEKAPKEATVMCEQCDVFYCDPCRLRCHPPRGPLAKHRLVPPAQGRVSRRLSPRKVSTCTDHELENHSMYCVQCKMPVCYQCLEEGKHSSHEVKALGAMWKLHKSQLSQALNGLSDRAKEAKEFLVQLRNMVQQIQENSVEFEACLVAQCDALIDALNRRKAQLLARVNKEHEHKLKVVRDQISHCTVKLRQTTGLMEYCLEVIKENDPSGFLQISDALIRRVHLTEDQWGKGTLTPRMTTDFDLSLDNSPLLQSIHQLDFVQVKASSPVPATPILQLEECCTHNNSATLSWKQPPLSTVPADGYILELDDGNGGQFREVYVGKETMCTVDGLHFNSTYNARVKAFNKTGVSPYSKTLVLQTSEVAWFAFDPGSAHSDIILSNDNLTVTCSSYDDRVVLGKTGFSKGIHYWELTVDRYDNHPDPAFGVARMDVMKDVMLGKDDKAWAMYVDNNRSWFMHNNSHTNRTEGGITKGATIGVLLDLNRKNLTFFINDEQQGPIAFDNVEGLFFPAVSLNRNVQVTLHTGLPVPDFYSSRASIA | 81.3 | −0.093
3 | TRIM11: human RING type E3 ligase expressed from lentiviral vector (protein, UniProt Q96F44 1-468, looked up) E3 ubiquitin-protein ligase …: MAAPDLSTNLQEEATCAICLDYFTDPVMTDCGHNFCRECIRRCWGQPEGPYACPECRELSPQRNLRPNRPLAKMAEMARRLHPPSPVPQGVCPAHREPLAAFCGDELRLLCAACERSGEHWAHRVRPLQDAAEDLKAKLEKSLEHLRKQMQDALLFQAQADETCVLWQKMVESQRQNVLGEFERLRRLLAEEEQQLLQRLEEEELEVLPRLREGAAHLGQQSAHLAELIAELEGRCQLPALGLLQDIKDALRRVQDVKLQPPEVVPMELRTVCRVPGLVETLRRFRGDVTLDPDTANPELILSEDRRSVQRGDLRQALPDSPERFDPGPCVLGQERFTSGRHYWEVEVGDRTSWALGVCRENVNRKEKGELSAGNGFWILVFLGSYYNSSERALAPLRDPPRRVGIFLDYEAGHLSFYSATDGSLLFIFPEIPFSGTLRPLFSPLSSSPTPMTICRPKGGSGDTLAPQ | 58.2 | −0.387
4 | TRIM15: human RING type E3 ligase expressed from lentiviral vector (protein, UniProt Q9C019 1-465, looked up, lentiviral expression, human RING type E3 ligase expressed from lentiviral vector) E3 ubiquitin-protein ligase …: MPATPSLKVVHELPACTLCAGPLEDAVTIPCGHTFCRLCLPALSQMGAQSSGKILLCPLCQEEEQAETPMAPVPLGPLGETYCEEHGEKIYFFCENDAEFLCVFCREGPTHQAHTVGFLDEAIQPYRDRLRSRLEALSTERDEIEDVKCQEDQKLQVLLTQIESKKHQVETAFERLQQELEQQRCLLLARLRELEQQIWKERDEYITKVSEEVTRLGAQVKELEEKCQQPASELLQDVRVNQSRCEMKTFVSPEAISPDLVKKIRDFHRKILTLPEMMRMFSENLAHHLEIDSGVITLDPQTASRSLVLSEDRKSVRYTRQKKSLPDSPLRFDGLPAVLGFPGFSSGRHRWQVDLQLGDGGGCTVGVAGEGVRRKGEMGLSAEDGVWAVIISHQQCWASTSPGTDLPLSEIPRGVRVALDYEAGQVTLHNAQTQEPIFTFTASFSGKVFPFFAVWKKGSCLTLKG | 66.8 | −0.277
5 | TRIM13: human RING type E3 ligase expressed from lentiviral vector (protein, UniProt O60858 1-407, looked up, lentiviral expression, human RING type E3 ligase expressed from lentiviral vector) E3 ubiquitin-protein ligase …: MELLEEDLTCPICCSLFDDPRVLPCSHNFCKKCLEGILEGSVRNSLWRPAPFKCPTCRKETSATGINSLQVNYSLKGIVEKYNKIKISPKMPVCKGHLGQPLNIFCLTDMQLICGICATRGEHTKHVFCSIEDAYAQERDAFESLFQSFETWRRGDALSRLDTLETSKRKSLQLLTKDSDKVKEFFEKLQHTLDQKKNEILSDFETMKLAVMQAYDPEINKLNTILQEQRMAFNIAEAFKDVSEPIVFLQQMQEFREKIKVIKETPLPPSNLPASPLMKNFDTSQWEDIKLVDVDKLSLPQDTGTFISKIPWSFYKLFLLILLLGLVIVFGPTMFLEWSLFDDLATWKGCLSNFSSYLTKTADFIEQSVFYWEQVTDGFFIFNERFKNFTLVVLNNVAEFVCKYKLL | 53 | −0.453
6 | TRIM10: human RING type E3 ligase expressed from lentiviral vector (protein, UniProt Q9UDY6 1-481, looked up, lentiviral expression, human RING type E3 ligase expressed from lentiviral vector) Tripartite motif-containing …: MASAASVTSLADEVNCPICQGTLREPVTIDCGHNFCRACLTRYCEIPGPDLEESPTCPLCKEPFRPGSFRPNWQLANVVENIERLQLVSTLGLGEEDVCQEHGEKIYFFCEDDEMQLCVVCREAGEHATHTMRFLEDAAAPYREQIHKCLKCLRKEREEIQEIQSRENKRMQVLLTQVSTKRQQVISEFAHLRKFLEEQQSILLAQLESQDGDILRQRDEFDLLVAGEICRFSALIEELEEKNERPARELLTDIRSTLIRCETRKCRKPVAVSPELGQRIRDFPQQALPLQREMKMFLEKLCFELDYEPAHISLDPQTSHPKLLLSEDHQRAQFSYKWQNSPDNPQRFDRATCVLAHTGITGGRHTWVVSIDLAHGGSCTVGVVSEDVQRKGELRLRPEEGVWAVRLAWGFVSALGSFPTRLTLKEQPRQVRVSLDYEVGWVTFTNAVTREPIYTFTASFTRKVIPFFGLWGRGSSFSLSS | 58.7 | −0.38
7 | TRIM14: human RING type E3 ligase expressed from lentiviral vector (protein, UniProt Q14142 1-442, looked up) Tripartite motif-containing …: MAGAATGSRTPGRSELVEGCGWRCPEHGDRVAELFCRRCRRCVCALCPVLGAHRGHPVGLALEAAVHVQKLSQECLKQLAIKKQQHIDNITQIEDATEKLKANAESSKTWLKGKFTELRLLLDEEEALAKKFIDKNTQLTLQVYREQADSCREQLDIMNDLSNRVWSISQEPDPVQRLQAYTATEQEMQQQMSLGELCHPVPLSFEPVKSFFKGLVEAVESTLQTPLDIRLKESINCQLSDPSSTKPGTLLKTSPSPERSLLLKYARTPTLDPDTMHARLRLSADRLTVRCGLLGSLGPVPVLRFDALWQVLARDCFATGRHYWEVDVQEAGAGWWVGAAYASLRRRGASAAARLGCNRQSWCLKRYDLEYWAFHDGQRSRLRPRDDLDRLGVFLDYEAGVLAFYDVTGGMSHLHTFRATFQEPLYPALRLWEGAISIPRLP | 70.6 | −0.229
